test system: Escherichia coli TOP10; assay: shrunken log2 fold change of peptide-encoding DNA abundance (4.5 h post-induction vs induction); higher = less antimicrobial activity (less host growth inhibition); conditions: time post-induction: 4.5 h; library: site-saturation at positions 5, 18, 19, 20
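Note: peptides expressed intracellularly from a pBAD plasmid library in pooled LB shake-flask culture, induced with 0.3% L-arabinose, DNA abundance read by NGS, three biological replicates, DESeq2 with apeglm shrinkage.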

Sequence	shrunken log2 fold change
RRIRGRPPRLPRPRPRPFWWPRP	0.806
RRIRDRPPRLPRPRPRPPVGPRP	0.348
RRIRLRPPRLPRPRPRPSWPPRP	0.00705
RRIRYRPPRLPRPRPRPCHQPRP	-0.00822
RRIRRRPPRLPRPRPRPVAGPRP	0.453
RRIRCRPPRLPRPRPRPHAQPRP	0.0778
RRIRYRPPRLPRPRPRPWSPPRP	-0.848
RRIRVRPPRLPRPRPRPTCDPRP	-0.156
RRIRNRPPRLPRPRPRPHWQPRP	-0.115
RRIRIRPPRLPRPRPRPFNCPRP	-0.0819
RRIRFRPPRLPRPRPRPKCLPRP	0.049
RRIRVRPPRLPRPRPRPLLYPRP	-0.259
RRIRQRPPRLPRPRPRPLNIPRP	-0.315
RRIRERPPRLPRPRPRPYMQPRP	-0.326
RRIRRRPPRLPRPRPRPWKFPRP	-0.0344
RRIRTRPPRLPRPRPRPPKGPRP	0.107
RRIRGRPPRLPRPRPRPMAVPRP	0.773
RRIRPRPPRLPRPRPRPGPSPRP	0.0312
RRIRIRPPRLPRPRPRPWFCPRP	-0.322
RRIRARPPRLPRPRPRPEDRPRP	0.381
RRIRFRPPRLPRPRPRPGTGPRP	-0.124
RRIRWRPPRLPRPRPRPVDRPRP	-0.0331
RRIRNRPPRLPRPRPRPWWHPRP	-0.104

Sequence	shrunken log2 fold change
RRIRGRPPRLPRPRPRPHIMPRP	-0.0914
RRIRERPPRLPRPRPRPMTPPRP	-0.0365
RRIRFRPPRLPRPRPRPRIEPRP	-0.0896
RRIRDRPPRLPRPRPRPEYWPRP	0.0559
RRIRFRPPRLPRPRPRPPVSPRP	0.0761
RRIRHRPPRLPRPRPRPWCAPRP	-0.145
RRIRARPPRLPRPRPRPRLAPRP	1.53
RRIRYRPPRLPRPRPRPLTAPRP	-0.492
RRIRSRPPRLPRPRPRPGCKPRP	-0.00169
RRIRGRPPRLPRPRPRPNTYPRP	0.106
RRIRERPPRLPRPRPRPFHLPRP	-0.173
RRIRDRPPRLPRPRPRPHMIPRP	-0.125
RRIRERPPRLPRPRPRPEHQPRP	0.0588
RRIRFRPPRLPRPRPRPHEMPRP	-0.0108
RRIRDRPPRLPRPRPRPPLFPRP	0.5
RRIRNRPPRLPRPRPRPHQLPRP	-0.0583
RRIRYRPPRLPRPRPRPTRWPRP	0.211
RRIRERPPRLPRPRPRPGWNPRP	0.277
RRIRPRPPRLPRPRPRPDMVPRP	-0.177
RRIRVRPPRLPRPRPRPHPYPRP	-1.08
RRIRPRPPRLPRPRPRPYSPPRP	-1.23
RRIRMRPPRLPRPRPRPDFQPRP	-0.0477
RRIRLRPPRLPRPRPRPCCTPRP	-0.0665

Sequence	shrunken log2 fold change
RRIRERPPRLPRPRPRPMMKPRP	-0.282
RRIRSRPPRLPRPRPRPLEWPRP	0.14
RRIRIRPPRLPRPRPRPDYQPRP	-0.611
RRIRTRPPRLPRPRPRPTGYPRP	0.000642
RRIRDRPPRLPRPRPRPPRDPRP	0.771
RRIRHRPPRLPRPRPRPARLPRP	0.568
RRIRVRPPRLPRPRPRPPLQPRP	0.272
RRIRYRPPRLPRPRPRPSLHPRP	-0.622
RRIRDRPPRLPRPRPRPDCYPRP	0.269
RRIRDRPPRLPRPRPRPEKYPRP	0.0312
RRIRNRPPRLPRPRPRPCIDPRP	0.027
RRIRERPPRLPRPRPRPCVRPRP	-0.447
RRIRIRPPRLPRPRPRPATSPRP	-0.273
RRIRKRPPRLPRPRPRPVWSPRP	-0.0616
RRIRSRPPRLPRPRPRPHQAPRP	-0.161
RRIRKRPPRLPRPRPRPICKPRP	0.363
RRIRARPPRLPRPRPRPIFWPRP	0.305
RRIRERPPRLPRPRPRPCYHPRP	-0.744
RRIRNRPPRLPRPRPRPDFWPRP	0.3
RRIRNRPPRLPRPRPRPIGVPRP	0.249
RRIRDRPPRLPRPRPRPPVVPRP	-0.0109
RRIRMRPPRLPRPRPRPPFLPRP	0.305
RRIRPRPPRLPRPRPRPITLPRP	0.0118

Sequence	shrunken log2 fold change
RRIRRRPPRLPRPRPRPFFIPRP	-0.0305
RRIRDRPPRLPRPRPRPHVSPRP	0.27
RRIRDRPPRLPRPRPRPFIFPRP	-0.0526
RRIRSRPPRLPRPRPRPRKAPRP	0.0188
RRIRLRPPRLPRPRPRPCHSPRP	-0.011
RRIRLRPPRLPRPRPRPSRPPRP	0.233
RRIRHRPPRLPRPRPRPMISPRP	-0.442
RRIRMRPPRLPRPRPRPSCTPRP	-0.0592
RRIRHRPPRLPRPRPRPWETPRP	-0.141
RRIRGRPPRLPRPRPRPTAAPRP	1.97
RRIRGRPPRLPRPRPRPGKVPRP	0.598
RRIRGRPPRLPRPRPRPDDSPRP	0.121
RRIRKRPPRLPRPRPRPWMYPRP	-0.122
RRIRSRPPRLPRPRPRPDGMPRP	-0.113
RRIRMRPPRLPRPRPRPNERPRP	0.69
RRIRKRPPRLPRPRPRPQVYPRP	-0.0614
RRIRMRPPRLPRPRPRPQGPPRP	0.246
RRIRNRPPRLPRPRPRPMFWPRP	0.0282
RRIRHRPPRLPRPRPRPYKPPRP	-0.466
RRIRVRPPRLPRPRPRPGTYPRP	-0.166
RRIRLRPPRLPRPRPRPTTFPRP	0.0632
RRIRQRPPRLPRPRPRPQNHPRP	-0.481

— the supplement of paper PMC9112550, “Optimization of the antimicrobial peptide Bac7 by deep mutational scanning” (BMC Biology, 2022)
